Ends that are not written are not given here.
B1: Cdc15 F-BAR (aa 19–312) (domain or fragment, S. pombe, UniProt Q09822 19-312, looked up)
chain: SVKFRDNFWGSEDAGMDALMSRTKSSLSVLESIDEFYAKRASIEREYASKLQELAASSADIPEVGSTLNNILSMRTETGSMAKAHEEVSQQINTELRNKIREYIDQTEQQKVVAANAIEELYQKKTALEIDLSEKKDAYEYSCNKLNSYMRQTKKMTGRELDKYNLKIRQAALAVKKMDAEYRETNELLLTVTREWIDRWTEVCDAFQHIEEYRLEFLKTNMWAYANIISTACVKDDESCEKIRLTLENTNIDEDITQMIQNEGTGTTIPPLPEFNDYFKENGLNYDIDQLISK

Experiments:
[1] = molecular target: T1, MBP-Cdc12 (aa 1–764) (S. pombe, UniProt Q10059 1-764); assay: pull-down
T1 sequence (looked up): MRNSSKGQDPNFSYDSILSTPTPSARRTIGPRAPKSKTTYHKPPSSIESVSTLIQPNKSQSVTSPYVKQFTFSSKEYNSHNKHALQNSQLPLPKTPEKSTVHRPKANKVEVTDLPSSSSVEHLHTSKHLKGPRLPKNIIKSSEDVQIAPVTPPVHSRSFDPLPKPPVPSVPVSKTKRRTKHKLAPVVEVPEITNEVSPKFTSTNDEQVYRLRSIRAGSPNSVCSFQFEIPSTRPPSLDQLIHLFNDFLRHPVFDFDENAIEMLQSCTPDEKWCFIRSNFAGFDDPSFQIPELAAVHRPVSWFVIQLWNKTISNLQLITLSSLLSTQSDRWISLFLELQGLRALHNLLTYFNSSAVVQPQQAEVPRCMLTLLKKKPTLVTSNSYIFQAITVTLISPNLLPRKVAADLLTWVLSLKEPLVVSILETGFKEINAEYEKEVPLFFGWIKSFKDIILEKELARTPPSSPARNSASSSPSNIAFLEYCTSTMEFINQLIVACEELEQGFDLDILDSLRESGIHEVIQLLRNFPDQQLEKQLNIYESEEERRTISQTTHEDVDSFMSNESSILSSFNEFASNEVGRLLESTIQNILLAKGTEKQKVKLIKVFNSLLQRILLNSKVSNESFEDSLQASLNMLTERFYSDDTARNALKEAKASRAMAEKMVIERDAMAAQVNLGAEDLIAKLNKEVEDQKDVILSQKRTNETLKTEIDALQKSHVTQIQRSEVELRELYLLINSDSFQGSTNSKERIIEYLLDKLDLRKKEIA

[2] = molecular target: B1; assay: pull-down

B1
binding result [1]: binds

TPTPSARRTIGPRAPKSKTTY (peptide, UniProt Q10059 20-40, looked up, also: biotinylated, position not given here) [Cdc12 (aa 20–40) synthetic peptide]
Kd [2]: 1.1 nM
